According to patent US11787839B2, “Targeting α2δ-1-bound glutamate receptors for treating diseases and disorders” (Board of Regents, The University of Texas System, priority 2017, dated 2023):

Tests used:
[1] = biological target: T1, α2δ-1 and NMDAR subunits in spinal cord synaptosomes (Rattus norvegicus, UniProt P35439+Q00959+Q00960); test: Protein levels in spinal cord synaptosomes of treated slices (SNL, sham); format: cell-based; details: slices treated 30 min
T1 construct: from tissue; host or cells: rat lumbar spinal cord slices (lamina II neurons) and synaptosomes made from them
Procedure: PSD-95, a known postsynaptic protein, was used as an internal control.
Spinal cord synaptosome preparation: The spinal cord slices were pooled from 2 rats and were homogenized using glass-Teflon homogenizer in 10 volumes of ice-cold HEPES-buffered sucrose (0.32 M sucrose, 1 mM EGTA, and 4 mM HEPES at pH 7.4) containing the protease inhibitor cocktail (Sigma-Aldrich). The homogenate was centrifuged at 1,000×g for 10 min at 4° C. to remove the nuclei and large debris. […] The synaptosomal pellet was lysed via hypo-osmotic shock in 9 volumes of ice-cold HEPES-buffer with the protease inhibitor cocktail for 30 min. The lysate was centrifuged at 25,000×g for 20 min at 4° C. to obtain the synaptosomal membrane fraction, which was then dissolved in sodium dodecyl sulfate sample buffer at a final concentration of 0.25 μg/μl for immunoblotting. […] The α2δ-1Tat peptide and scrambled control peptide were synthesized by Bio Basic Inc. (Marham, Ontario, Canada) and validated by using liquid chromatography and mass spectrometry.

[2] = biological target: T2, NMDARs of hippocampal CA1 pyramidal neurons (Mus musculus, UniProt O08532+P35438); test: Puff NMDAR currents of hippocampal CA1 neurons, oxygen-glucose deprivation (OGD); format: cell-based; details: 5 min OGD; gabapentin 30 or 100 μM, peptides 1 μM, 60 min
T2 construct: from tissue; host or cells: mouse brain slices (hippocampal CA1, hypothalamic PVN, brain tissue membrane extracts)
T2 sequence (O08532 25-956 limits assumed, other chains not shown): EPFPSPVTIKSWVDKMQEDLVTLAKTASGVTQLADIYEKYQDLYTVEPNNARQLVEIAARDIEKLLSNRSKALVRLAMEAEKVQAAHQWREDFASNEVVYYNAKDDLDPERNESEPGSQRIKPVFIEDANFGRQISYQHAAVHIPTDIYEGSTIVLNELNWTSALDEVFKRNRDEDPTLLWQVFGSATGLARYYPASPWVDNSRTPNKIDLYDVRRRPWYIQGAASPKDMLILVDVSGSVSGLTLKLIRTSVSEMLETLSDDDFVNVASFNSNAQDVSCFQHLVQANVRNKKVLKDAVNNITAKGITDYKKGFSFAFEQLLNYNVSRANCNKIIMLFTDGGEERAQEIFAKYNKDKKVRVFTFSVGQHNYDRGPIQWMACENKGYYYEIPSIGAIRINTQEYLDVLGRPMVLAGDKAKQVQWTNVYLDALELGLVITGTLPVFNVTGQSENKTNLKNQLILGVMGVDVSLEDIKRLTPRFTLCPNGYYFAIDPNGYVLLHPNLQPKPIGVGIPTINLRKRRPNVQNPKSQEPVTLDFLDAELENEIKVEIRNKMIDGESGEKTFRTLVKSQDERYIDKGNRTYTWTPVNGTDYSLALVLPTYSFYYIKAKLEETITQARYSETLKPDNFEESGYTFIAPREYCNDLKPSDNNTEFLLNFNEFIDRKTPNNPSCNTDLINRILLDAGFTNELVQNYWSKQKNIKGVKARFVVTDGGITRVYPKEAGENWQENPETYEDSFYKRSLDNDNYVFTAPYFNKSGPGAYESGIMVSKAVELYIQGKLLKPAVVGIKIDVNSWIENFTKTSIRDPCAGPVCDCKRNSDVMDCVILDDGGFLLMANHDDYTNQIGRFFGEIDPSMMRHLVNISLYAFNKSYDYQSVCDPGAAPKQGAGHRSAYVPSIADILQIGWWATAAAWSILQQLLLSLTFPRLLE
Procedure: Brain slice preparation and recording. The tissues containing the hippocampus were sliced sagittally (300 μm thick) using a vibratome. […] NMDAR currents of pyramidal neurons in the hippocampal CA1 region were recorded by puff application of 100 μM NMDA directly to the recorded neuron at a holding potential of −60 mV.

[3] = biological target: T3, NMDARs of spinally projecting PVN neurons (Rattus norvegicus, UniProt P35439+Q00959+Q00960); test: Recordings of spinally projecting PVN neurons in rat brain slices (Ang II); format: cell-based; details: losartan 2 μmol/L, pregabalin 20 μmol/L, peptides 1 μmol/L
T3 construct: from tissue; host or cells: rat hypothalamic slices containing the PVN (Sprague-Dawley, WKY, SHR) and synaptosomes made from them
Excerpt: Retrograde labeling of spinally projecting PVN neurons: Rats or mice were anesthetized with 2-3% isoflurane, and their spinal cords at the T1-T4 level were exposed through dorsal laminectomy. A fluorescent microsphere suspension (FluoSpheres, 0.04 μm; Molecular Probes, Invitrogen, Eugene, Oreg.) was pressure ejected (Nanoject II Microinjectors, Drummond Scientific Company, Broomall, Pa.) bilaterally into the IML region of the spinal cord in six separate 50-nl injections using a glass micropipette (tip diameter, 20-30 μm). […] The wound was closed with sutures after injection. Animals were returned to their cages for 4-7 days, which was sufficient time to permit the tracer to be retrogradely transported to the PVN. The animals were inspected daily for motor activity, signs of infection, and food and water intake.
Brain slice preparation: Four to seven days after fluorescent tracer injection, the animals were anesthetized with isoflurane and rapidly decapitated. […] Coronal slices (thickness, 300 μm) containing the PVN were cut from the tissue block in the ice-cold aCSF. […] The brain slices were placed in a glass-bottom chamber and continuously perfused with aCSF at 3.0 ml/min at 34° C. maintained by an inline solution heater and temperature controller.
The labeled PVN neurons were briefly identified with the aid of epifluorescence illumination, and whole-cell recordings from labeled PVN neurons were performed under differential interference contrast optics on an upright microscope (BX50 WI; Olympus Optical, Tokyo, Japan). Recordings of postsynaptic currents began 5 min after the whole-cell access was established and the current reached a steady state.
Signals were processed with an […] amplifier (Axon Instruments, Foster City, Calif.). A liquid junction potential of 15 mV (for the potassium gluconate pipette solution) was corrected during off-line analysis.
Postsynaptic NMDAR currents were elicited by puff application of 100 μmol/L NMDA to the recorded neuron using a positive pressure system (4 p.s.i., 50 ms; Toohey Company, Fairfield, N.J.). The tip of the puff pipette was placed 150 μm from the recorded neuron. […] The NMDAR current data presented in the manuscript were the average of 3 consecutive currents elicited by repeated puff NMDA. The neuron was discarded if the current was not stable.
Ang II, losartan, and NMDA were obtained from Sigma (St. Louis, Mo.). The α2δ-1Tat peptide and scrambled control peptide were synthesized by Bio Basic Inc. (Markham, Ontario, Canada) and validated by liquid chromatography and mass spectrometry. […] All drugs were prepared immediately before the experiments and applied to the slice chamber. The brain slices were first pretreated with Ang II, losartan, α2δ-1Tat peptide, or control peptide in the slice incubation chamber before recording. For electrophysiological recording, the treatment agents were immediately removed and the brain slice transferred to a separate recording chamber.

anesthetized rats = test: PVN microinjection and recording of RSNA and ABP (Ang II); format: in vivo, rat; details: peptides 100 μmol/L, 50 nl
Procedure: PVN microinjection and recording of renal sympathetic nerve activity: Rats were anesthetized with a mixture of α-chloralose (60 mg/kg, i.p.) and urethane (800 mg/kg, i.p.). A retroperitoneal incision was made, and a branch of the left renal postganglionic sympathetic nerve was isolated under a surgical microscope. The renal sympathetic nerve was cut distally to ensure that afferent nerve activity was not recorded. The renal sympathetic nerve activity (RSNA), arterial blood pressure (ABP), and heart rate (HR) were recorded using a 1401-PLUS analog-to-digital converter and Spike2 system (Cambridge Electronic Design, Cambridge, UK). A microinjection pipette (tip diameter, 20-30 μm) was advanced into the PVN according to the following stereotactic coordinates: 1.6-2.0 mm caudal to the bregma, 0.5 mm lateral to the midline, and 7.0-7.5 mm ventral to the dura. The microinjection was done using a calibrated microinjection system (Nanoject II; Drummond Scientific) and monitored using a surgical microscope as described previously (Li and Pan, 2006, 2007; Qiao et al., 2017). Ang II (200 μmol/L, 50 nl) was microinjected into the PVN to observe the change in RSNA and ABP in the absence or presence of α2δ-1Tat peptide (100 μmol/L, 50 nl) or control peptide (100 μmol/L, 50 nl). The microinjections were separated by 10- to 15-min intervals to allow recovery of the response. To determine the location of the injection site and diffusion of the drugs in the PVN, 5% rhodamine-labeled fluorescent microspheres (0.04 μm; Molecular Probes) were included in the injection solution (Li and Pan, 2006, 2007; Qiao et al., 2017).

[4] = biological target: T4, presynaptic NMDARs of spinal dorsal horn neurons (Rattus norvegicus, UniProt P35439+Q00959+Q00960); test: Spinal cord slice recordings, morphine-treated rats; format: cell-based; details: AP5 50 μM, gabapentin 100 μM, peptides 1 μM for 60 min
T4 construct: from tissue; host or cells: rat lumbar spinal cord slices (lamina II neurons) and synaptosomes made from them
Procedure: Spinal cord slice preparation and electrophysiological recordings: The lumbar spinal cord was rapidly removed through laminectomy from the animals anesthetized with isoflurane. […] The spinal cord tissue was then placed in a shallow groove formed in an agar block and glued onto the stage of a vibratome (Leica, Germany).
All signals were recorded using an amplifier (MultiClamp700B; Axon Instruments Inc., Union City, Calif.), filtered at 1-2 kHz, and digitized at 10 kHz.

[5] = biological target: T5, NMDARs of RVLM-projecting PVN neurons (Rattus norvegicus, UniProt P35439+Q00959+Q00960); test: Recordings of RVLM-projecting PVN neurons in slices of WKY rats and SHRs; format: cell-based
T5 construct: from tissue; host or cells: rat hypothalamic slices containing the PVN (Sprague-Dawley, WKY, SHR) and synaptosomes made from them

[6] = biological target: presynaptic NMDARs of spinal lamina II neurons (Rattus norvegicus, UniProt P35439+Q00959+Q00960)
Sequence of presynaptic NMDARs of spinal lamina II neurons (Q00959 20-1464 limits assumed, other chains not shown): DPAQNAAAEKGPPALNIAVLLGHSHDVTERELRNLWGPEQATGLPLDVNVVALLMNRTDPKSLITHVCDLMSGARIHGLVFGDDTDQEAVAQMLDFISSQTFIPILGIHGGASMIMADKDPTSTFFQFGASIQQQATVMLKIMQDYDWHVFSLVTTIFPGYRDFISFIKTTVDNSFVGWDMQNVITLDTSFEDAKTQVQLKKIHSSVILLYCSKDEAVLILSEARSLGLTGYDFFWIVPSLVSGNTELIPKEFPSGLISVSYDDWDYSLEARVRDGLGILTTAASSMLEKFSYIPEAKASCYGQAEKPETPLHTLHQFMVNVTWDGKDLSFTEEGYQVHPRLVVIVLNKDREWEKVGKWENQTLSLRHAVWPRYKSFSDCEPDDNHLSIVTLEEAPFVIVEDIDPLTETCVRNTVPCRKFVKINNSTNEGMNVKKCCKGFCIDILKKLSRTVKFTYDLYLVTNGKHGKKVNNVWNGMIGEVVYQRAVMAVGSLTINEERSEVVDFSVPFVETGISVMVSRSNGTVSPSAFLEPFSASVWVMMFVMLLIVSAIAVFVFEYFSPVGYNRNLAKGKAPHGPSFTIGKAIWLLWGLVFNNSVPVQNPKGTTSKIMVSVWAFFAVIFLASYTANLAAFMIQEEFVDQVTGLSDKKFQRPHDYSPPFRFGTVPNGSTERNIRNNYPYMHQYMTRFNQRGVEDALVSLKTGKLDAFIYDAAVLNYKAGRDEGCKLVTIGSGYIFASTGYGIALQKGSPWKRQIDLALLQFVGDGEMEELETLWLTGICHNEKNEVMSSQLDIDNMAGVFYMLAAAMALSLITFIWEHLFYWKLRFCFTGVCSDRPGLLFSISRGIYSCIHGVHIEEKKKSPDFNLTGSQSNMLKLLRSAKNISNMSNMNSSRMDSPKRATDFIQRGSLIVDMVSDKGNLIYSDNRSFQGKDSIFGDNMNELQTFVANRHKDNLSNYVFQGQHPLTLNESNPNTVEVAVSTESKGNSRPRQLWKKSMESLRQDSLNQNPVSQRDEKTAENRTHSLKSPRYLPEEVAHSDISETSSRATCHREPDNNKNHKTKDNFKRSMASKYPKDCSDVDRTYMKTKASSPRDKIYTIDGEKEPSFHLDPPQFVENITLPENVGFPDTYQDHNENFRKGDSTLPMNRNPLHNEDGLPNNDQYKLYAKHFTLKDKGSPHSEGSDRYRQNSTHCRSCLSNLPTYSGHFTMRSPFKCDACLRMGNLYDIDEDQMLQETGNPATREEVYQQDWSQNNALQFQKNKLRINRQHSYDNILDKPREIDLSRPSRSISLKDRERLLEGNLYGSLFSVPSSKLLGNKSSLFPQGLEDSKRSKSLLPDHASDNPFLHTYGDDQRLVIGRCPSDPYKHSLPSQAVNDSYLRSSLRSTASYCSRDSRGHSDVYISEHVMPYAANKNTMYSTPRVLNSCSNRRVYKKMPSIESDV
Sequence of presynaptic NMDARs of spinal lamina II neurons (Q00960 27-1482, other chains not shown): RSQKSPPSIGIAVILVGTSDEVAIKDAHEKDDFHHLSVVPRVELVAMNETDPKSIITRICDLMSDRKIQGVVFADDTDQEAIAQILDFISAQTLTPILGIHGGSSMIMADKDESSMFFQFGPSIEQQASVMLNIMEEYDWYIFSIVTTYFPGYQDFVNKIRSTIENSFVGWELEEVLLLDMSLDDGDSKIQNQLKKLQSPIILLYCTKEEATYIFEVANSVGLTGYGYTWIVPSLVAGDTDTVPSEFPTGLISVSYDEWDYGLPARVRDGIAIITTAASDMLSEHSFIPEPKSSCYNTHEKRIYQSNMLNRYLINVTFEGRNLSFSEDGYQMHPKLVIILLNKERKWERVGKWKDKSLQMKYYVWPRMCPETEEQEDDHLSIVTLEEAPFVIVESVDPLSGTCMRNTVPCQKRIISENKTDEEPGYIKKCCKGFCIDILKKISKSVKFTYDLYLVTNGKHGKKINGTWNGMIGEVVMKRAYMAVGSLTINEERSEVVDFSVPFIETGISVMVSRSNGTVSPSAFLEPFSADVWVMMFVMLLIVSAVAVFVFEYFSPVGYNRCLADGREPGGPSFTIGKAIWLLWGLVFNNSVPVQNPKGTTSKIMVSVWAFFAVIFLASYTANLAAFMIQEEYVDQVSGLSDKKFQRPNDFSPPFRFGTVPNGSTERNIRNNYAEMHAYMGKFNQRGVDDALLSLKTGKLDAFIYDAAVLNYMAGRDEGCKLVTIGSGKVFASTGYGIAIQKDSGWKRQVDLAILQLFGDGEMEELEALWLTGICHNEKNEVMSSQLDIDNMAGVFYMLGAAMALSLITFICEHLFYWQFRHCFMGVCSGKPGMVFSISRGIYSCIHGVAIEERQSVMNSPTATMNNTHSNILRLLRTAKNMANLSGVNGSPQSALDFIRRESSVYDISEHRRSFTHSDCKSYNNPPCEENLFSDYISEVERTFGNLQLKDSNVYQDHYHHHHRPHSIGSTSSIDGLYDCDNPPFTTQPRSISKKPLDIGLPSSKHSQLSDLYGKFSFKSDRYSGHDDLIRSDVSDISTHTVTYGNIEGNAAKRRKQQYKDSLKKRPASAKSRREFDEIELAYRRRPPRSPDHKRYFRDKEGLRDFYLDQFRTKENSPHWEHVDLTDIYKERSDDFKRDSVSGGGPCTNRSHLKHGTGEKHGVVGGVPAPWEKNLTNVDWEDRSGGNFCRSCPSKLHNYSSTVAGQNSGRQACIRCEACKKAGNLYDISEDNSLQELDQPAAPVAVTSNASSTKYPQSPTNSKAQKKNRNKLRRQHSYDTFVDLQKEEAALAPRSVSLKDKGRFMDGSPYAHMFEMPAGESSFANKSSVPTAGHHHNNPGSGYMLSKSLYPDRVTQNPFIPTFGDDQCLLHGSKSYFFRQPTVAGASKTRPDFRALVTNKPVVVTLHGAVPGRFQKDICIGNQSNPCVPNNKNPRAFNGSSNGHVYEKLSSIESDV

[7] = paclitaxel-treated rats, AP5 50 μM, pregabalin 20 μM, peptides 1 μM
[8] = vehicle-treated rats, AP5 50 μM, pregabalin 20 μM, peptides 1 μM

FGLGWQPWSLSFYLVWSGLILSVLHLIRSN (Control peptide)
increased protein levels of GluN1, GluN2A, GluN2B and α2δ-1 in spinal cord synaptosomes ([1]; SNL rats): had no such effects | protein levels of GluN1, GluN2A, GluN2B and α2δ-1 in spinal cord synaptosomes ([1]; sham rats): had no such effects | OGD-induced increase in the puff NMDAR currents [2]: did not alter | effect of Ang II on mEPSC frequency in pretreated slices [3]: did not affect | effect of Ang II on puff NMDA currents in pretreated slices ([3]; 30 min): significantly increased | ABP and RSNA responses to Ang II after prior peptide microinjection into the PVN (anesthetized rats): not altered | amplitude of monosynaptic evoked EPSCs [4]: did not affect | puff NMDA currents of labelled PVN neurons ([5]; SHRs): had no effect | ratio of NMDAR-EPSCs to AMPAR-EPSCs ([5]; SHRs): did not affect | baseline frequency of mEPSCs of labelled PVN neurons ([5]; SHRs, AP5 50 μmol L-1, gabapentin 100 μmol L-1, peptides 1 μmol L-1, 60 min): had no effect | amplitude of evoked NMDAR-EPSCs of labelled PVN neurons ([5]; SHRs, gabapentin 100 μmol L-1, peptides 1 μmol L-1, 60 min): did not affect | amplitude of puff NMDA currents ([5]; WKY rats): had no effect | frequency or amplitude of mEPSCs of labelled PVN neurons ([5]; WKY rats): had no effect | ratio of NMDAR-EPSCs to AMPAR-EPSCs ([5]; WKY rats): did not affect | amplitude of evoked AMPAR-EPSCs of labelled PVN neurons ([5]; WKY rats or SHRs): did not affect | amplitude of evoked NMDAR-EPSCs of labelled PVN neurons ([5]; WKY rats, gabapentin 100 μmol L-1, peptides 1 μmol L-1, 60 min): did not affect | increased amplitude of evoked monosynaptic EPSCs [6, 7]: did not significantly alter | increased frequency of mEPSCs of lamina II neurons [6, 7]: did not affect | PPR of evoked EPSCs ([6]; vehicle-treated rats): had no effect | amplitude of evoked monosynaptic EPSCs [6, 8]: did not significantly alter | frequency of mEPSCs of lamina II neurons [6, 8]: did not affect
